US20060177441A1 (Genentech, published 2006)

T1: mpl-Ig (UniProt P40238 26-491)
T1 construct: Used as conditioned medium of mpl-Ig-transfected 293 cells, captured on anti-human IgG Fc plates; also called Mpl (Mpl/TPO ELISA); not shown: Ig part, captured by rabbit anti-human IgG Fc
T1 sequence (looked up): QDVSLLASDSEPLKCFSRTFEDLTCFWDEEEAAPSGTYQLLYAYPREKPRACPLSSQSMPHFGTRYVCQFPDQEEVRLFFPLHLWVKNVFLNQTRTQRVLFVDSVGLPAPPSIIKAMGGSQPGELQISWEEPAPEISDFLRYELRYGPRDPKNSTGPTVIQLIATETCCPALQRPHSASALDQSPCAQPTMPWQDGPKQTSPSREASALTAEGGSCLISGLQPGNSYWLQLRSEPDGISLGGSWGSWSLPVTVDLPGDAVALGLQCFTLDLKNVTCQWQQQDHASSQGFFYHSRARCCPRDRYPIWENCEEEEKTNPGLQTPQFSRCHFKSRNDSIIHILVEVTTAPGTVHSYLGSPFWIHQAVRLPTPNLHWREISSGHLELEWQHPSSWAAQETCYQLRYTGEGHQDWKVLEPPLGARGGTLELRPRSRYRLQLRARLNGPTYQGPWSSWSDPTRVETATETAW

T2: c-mpl (thrombopoietin receptor) on HU-03 cells, human platelets or human cord blood cells (human, UniProt P40238 26-635)
T2 construct: whole, on cells; also called mpl receptor; TPO receptor
T2 sequence (looked up): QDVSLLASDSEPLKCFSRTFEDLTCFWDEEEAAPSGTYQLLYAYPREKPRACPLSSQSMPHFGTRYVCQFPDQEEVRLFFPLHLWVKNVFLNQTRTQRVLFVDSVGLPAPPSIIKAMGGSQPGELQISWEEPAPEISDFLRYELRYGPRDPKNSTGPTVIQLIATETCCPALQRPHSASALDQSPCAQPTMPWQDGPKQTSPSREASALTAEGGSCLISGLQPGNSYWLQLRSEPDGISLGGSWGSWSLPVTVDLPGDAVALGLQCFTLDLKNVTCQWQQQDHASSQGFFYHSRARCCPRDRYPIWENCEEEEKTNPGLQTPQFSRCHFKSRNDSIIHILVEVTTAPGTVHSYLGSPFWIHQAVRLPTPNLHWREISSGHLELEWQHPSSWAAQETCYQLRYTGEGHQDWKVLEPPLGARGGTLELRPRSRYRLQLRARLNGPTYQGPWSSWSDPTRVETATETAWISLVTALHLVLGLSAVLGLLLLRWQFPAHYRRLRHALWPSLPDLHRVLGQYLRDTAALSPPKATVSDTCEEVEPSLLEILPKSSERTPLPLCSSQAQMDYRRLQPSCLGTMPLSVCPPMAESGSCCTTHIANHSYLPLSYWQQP


Assays:
[1] = biological target: c-mpl (thrombopoietin receptor) on HU-03 cells, human platelets or human cord blood cells (human) (UniProt P40238); test: Platelets: competition with 125I-TPO (100 pM) on human platelets
[2] = biological target: c-mpl (thrombopoietin receptor) on HU-03 cells, human platelets or human cord blood cells (human) (UniProt P40238); test: cell-based or functional assay
[3] = biological target: mpl-Rse.gD chimeric receptor (human) (UniProt P40238); test: cell-based or functional assay
[4] = biological target: c-mpl (thrombopoietin receptor) on HU-03 cells, human platelets or human cord blood cells (human) (UniProt P40238); test: Hu3 Binding: competition with 125I-TPO (100 pM) on HU-03 cells
mpl-Ig = biological target: T1, mpl-Ig; test: Mpl/TPO ELISA: inhibition of biotinylated TPO binding to captured mpl-Ig
[5] = biological target: T2, c-mpl (thrombopoietin receptor) on …; test: Hu3 Binding: competition with 125I-TPO (100 pM) on HU-03 cells
Description: (§1) HU-03 cells were agitated during the incubation period to keep them in suspension. The reaction mixture was overlayed on 1 ml 20% sucrose-HBSSB and microcentrifuged at 13,500 rpm for five minutes. The supernatants were aspirated, tube bottoms containing the cell pellets were cut off, and cell- or platelet-associated radioactivity was measured with an Iso Data Model 120 gamma counter.

[6] = biological target: T2, c-mpl (thrombopoietin receptor) on …; test: Platelets: competition with 125I-TPO (100 pM) on human platelets
Description: as §1

IC50 [1] [nM]	Hu3 Proliferation (ED50) [2] [nM]	KIRA (ED50) [3] [nM]	IC50 [4] [nM]	IC50 (mpl-Ig) [nM]	IC50 [5] [nM]	IC50 [6] [nM]	Binder
300	0.03	0.4	10	0.152	–	–	12B5 IgG (antibody, from another filing) scFv: QVQLVQSGGGLVRPGGSLSLSCAVSGITLRTYGMHWVRQAPGKGLEWVAGISFDGRSEYYADSVQGRFTISRDSSKNTLYLQMNSLRAEDTAVYYCARGAHYGFDIWGQGTMVTVSSGGGGTGGGGSGGGGSDIQMTQSPSTLSASIGDRVTITCRASEGIYHWLAWYQQKPGKAPKLLIYKASSLASGAPSRFSGSGSGTDFTLTISSLQPDDFATYYCQQYSNYPLTFGGGTKLEIK
–	–	–	–	0.45	50	500	12E10 IgG (antibody, V domains shown, Full length antibody with human IgG1 CH1, CH2 and CH3 domains, expressed in 293 or CHO cells; also called full length human antibody derivative of 12E10) VH: QVQLQQSGPGLVKPSETLSLTCTVSGDSISSYYWSWIRQPPGKGLEWIGYIYYSGSTNYNPSLKSRVTISVDTSKSQFSLKLSSVTAADTAVYYCARGRYFDVWGRGTMVTVSS VL: SYVLTQPPSVSGSPGQSITISCTGTSSDVGGYNYVSWYQQHPGKAPKLMIYEGSKRPSGVSNRFSGSKSGNTASLTISGLQAEDEADYYCSSYTTRSTRVFGGGTKLTVL

Further lines, the binder ahead of its results:

Binder	IC50 [1] [nM]	Hu3 Proliferation (ED50) [2] [nM]	KIRA (ED50) [3] [nM]	IC50 [4] [nM]	IC50 (mpl-Ig) [nM]	IC50 [5] [nM]	IC50 [6] [nM]
12E10 Fab (Fab, V domains shown, Monovalent Fab′ from E. coli: human IgG1 CH1 ending thr-ala-ala-pro, human kappa1 CL (pXCA730) or human lambda CL (pXCA970)) VH: QVQLQQSGPGLVKPSETLSLTCTVSGDSISSYYWSWIRQPPGKGLEWIGYIYYSGSTNYNPSLKSRVTISVDTSKSQFSLKLSSVTAADTAVYYCARGRYFDVWGRGTMVTVSS VL: SYVLTQPPSVSGSPGQSITISCTGTSSDVGGYNYVSWYQQHPGKAPKLMIYEGSKRPSGVSNRFSGSKSGNTASLTISGLQAEDEADYYCSSYTTRSTRVFGGGTKLTVL	–	–	–	–	180	500	–
12E10 Fab′2 (other, F(ab′)2 with leucine zipper, expressed in E. coli from pXCA740; copies: 2 + 2) VH: QVQLQQSGPGLVKPSETLSLTCTVSGDSISSYYWSWIRQPPGKGLEWIGYIYYSGSTNYNPSLKSRVTISVDTSKSQFSLKLSSVTAADTAVYYCARGRYFDVWGRGTMVTVSS VL: SYVLTQPPSVSGSPGQSITISCTGTSSDVGGYNYVSWYQQHPGKAPKLMIYEGSKRPSGVSNRFSGSKSGNTASLTISGLQAEDEADYYCSSYTTRSTRVFGGGTKLTVL	–	–	–	–	640	10	500
